Measurements reported in article doi:10.1101/783373 (bioRxiv, 2019).

Key:
[1] = molecular target: PACRGΔ1-69 Y189ϕ (p-iodo-L-phenylalanine derivative) (human, UniProt Q96M98-2 70-257, Y189ϕ, p-iodo-L-phenylalanine (ϕ) at 189); assay: SEC
[2] = molecular target: PACRGΔ1-69 Y108ϕ (p-iodo-L-phenylalanine derivative) (human, UniProt Q96M98-2 70-257, Y108ϕ, p-iodo-L-phenylalanine (ϕ) at 108); assay: SEC

binding result [1]: binds | binding result [2]: binds
B1: MEIG1 (human), His6 tag cleaved (natural protein)
chain: MASSDVKPKSVSHAKKWSEEIENLYRFQQAGYRDETEYRQVKQVSMVDRWPETGYVKKLQRRDNTFYYYNKQRECDDKEVHKVKIYAY
